The values below come from paper doi:10.1101/2023.01.10.523476 (bioRxiv, 2023).

Where two headings read alike, the source gives them in different places.

Data set [1] deals with the molecule itself. The experiment in a line: cryo-EM structure.
Data set [2] deals with the molecule itself. The data set can be described thus: cryo-EM structure. This is another data set of the same source.

B1: GspDα secretin (E. coli K12 strain) (natural protein)
chain: ENEQYGANFNNADIRQFVEIVGQHLGKTILIDPSVQGTISVRSNDTFSQQEYYQFFLSILDLYGYSVITLDNGFLKVVRSANVKTSPGMIADSSRPGVGDELVTRIVPLENVPARDLAPLLRQMMDAGSVGNVVHYEPSNVLILTGRASTINKLIEVIKRVDVIGTEKQQIIHLEYASAEDLAEILNQLISESHGKSQMPALLSAKIVADKRTNSLIISGPEKARQRITSLLKSLDVEESEEGNTRVYYLKYAKATNLVEVLTGVSEKLKDEKGNARKPSSSGAMDNVAITADEQTNSLVITADQSVQEKLATVIARLDIRRAQVLVEAIIVEVQDGNGLNLGVQWANKNVGAQQFTNTGLPIFNAAQGVADYKKNGGITSANPAWDMFSAYNGMAAGFFNGDWGVLLTALASNNKNDILATPSIVTLDNKLASFNVGQDVPVLSGSQTTSGDNVFNTVERKTVGTKLKVTPQVNEGDAVLLEIEQEVSSVDSSSNSTLGPTFNTRTIQNAVLVKTGETVVLGGLLDDFSKEQVSKVPLLGDIPLVGQLFRYTSTERAKRNLMVFIRPTIIRDDDVYRSLSKEKYTRYRQEQQQRIDGKSKALVGSEDLPVLDENTFNSHAPAPSSR
For B1, in the data set “cryo-EM structure [1]”, the stoichiometry N (in general, the number of molecules, sites or subunits per partner or assembly) turned out to be 15.

B2: GspDβ secretin (ETEC H10407 strain) with hexahistidine tag (natural protein)
chain: EEATFTANFKDTDLKSFIETVGANLNKTIIMGPGVQGKVSIRTMTPLNERQYYQLFLNLLEAQGYAVVPMENDVLKVVKSSAAKVEPLPLVGEGSDNYAGDEMVTKVVPVRNVSVRELAPILRQMIDSAGSGNVVNYDPSNVIMLTGRASVVERLTEVIQRVDHAGNRTEEVIPLDNASASEIARVLESLTKNSGENQPATLKSQIVADERTNSVIVSGDPATRDKMRRLIRRLDSEMERSGNSQVFYLKYSKAEDLVDVLKQVSGTLTAAKEEAEGTVGSGREIVSIAASKHSNALIVTAPQDIMQSLQSVIEQLDIRRAQVHVEALIVEVAEGSNINFGVQWASKDAGLMQFANGTQIPIGTLGAAISQAKPQKGSTVISENGATTINPDTNGDLSTLAQLLSGFSGTAVGVVKGDWMALVQAVKNDSSSNVLSTPSITTLDNQEAFFMVGQDVPVLTGSTVGSNNSNPFNTVERKKVGIMLKVTPQINEGNAVQMVIEQEVSKVEGQTSLDVVFGERKLKTTVLANDGELIVLGGLMDDQAGESVAKVPLLGDIPLIGNLFKSTADKKEKRNLMVFIRPTILRDGMAADGVSQRKYNYMRAEQIYRDEQGLSLMPHTAQPVLPAQNQALPPEVRAFLNAGRTR
Consider B2, for which the “stoichiometry N” value in “cryo-EM structure [2]” was found to be 15.
